According to the supplement of paper PMC9732359:
± gives the uncertainty stated by the source.

Assay: protein stability index of a GFP-peptide fusion (yeast GPS) (PSI 1-4); higher = more stable; sorted into four equal gates, so the index is relative within each strain
Conditions: pdr5∆
Summary of the method: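 Peptides tiling yeast proteins in 17-residue segments were fused downstream of GFP, with Cherry expressed from the same plasmid. As a pooled library in yeast, mid-log cultures grown in leucine-free medium were sorted into four equal gates by GFP/Cherry fluorescence ratio. Gate plasmids were PCR-amplified and Illumina-sequenced, and barcodes linked reads to strains. Each peptide received a protein stability index equal to the sum of each gate's read frequency times its gate number.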
TMVIQDEDWSVRIDKAL [ECM29] gave a protein stability index of 3.21 ± 0.18. Sequence TNEEVRNMAEEFEYDDE [CYT1] has a protein stability index of 2.3 ± 0.077. With TNKISPKDFSPNFTGID [SSN2] the protein stability index was 1.84 ± 0.11. With TNNKKLLEKANNQQRLL [SMC3] the protein stability index was 1.94 ± 0.091.

Same assay, conditions: san1∆
In the case of SVPLRKGDRALLVKLSK [BRR2], the protein stability index is reported as 3.06 ± 0.094. SVQLPDMAKLKKMMNTS [SWI3] gave a protein stability index of 1.91 ± 0.11. Work on SVSMLLQYYILEYMNTA [RRI2] yielded a protein stability index of 2.93 ± 0.086. For SVVLTLQAFGESESTTN [RPB3], the protein stability index was 1.67 ± 0.11. For SVWKPIAAIIGRLNTLV [IRR1], the protein stability index was 2.04 ± 0.058. SVYYHKGNFRTKPFENV [SNU114] gave a protein stability index of 3.37 ± 0.059. Sequence SWASEGISKKTRIAGVV [RPS8A] has a protein stability index of 2.17 ± 0.045. SYALSMEKDKLKNLLRS [SNU114] showed a protein stability index of 2.31 ± 0.16. SYANLPGTITHGMFSSA [FAS1] showed a protein stability index of 2.16 ± 0.055. SYDRTLLIADSRRPEPK [RPS16A] gave a protein stability index of 2.03 ± 0.075. For SYELRNTTTYKSRPDRP [SNF5], the protein stability index was 3.1 ± 0.087. In the case of SYFKNSVIVKFHSEPDR [LIN1], the protein stability index is reported as 2.44 ± 0.067. SYRLLPQINILQPIKGE [RPC40] showed a protein stability index of 1.74 ± 0.067. In the case of SYTFRSEKGLLSATQFT [FAS1], the protein stability index is reported as 2.84 ± 0.045. SYYSREQDALFITRLAQ [RPN1] showed a protein stability index of 1.65 ± 0.078. TAETGYIQRRLVKALED [RPO21] showed a protein stability index of 2.69 ± 0.076. For TAFATEFFVQVLTHESL [DLS1], the protein stability index was 2.73 ± 0.088. For TALALKYLIKYNVFRQH [CSI1], the protein stability index was 1.7 ± 0.11. For TANANKPAFSFGATTND [YJL041W/NSP1], the protein stability index was 2.91 ± 0.047. Work on TARRNVSGDAAALFRLH [SWI3] yielded a protein stability index of 2.78 ± 0.086. For TCPGLSLTDVAFFTYDA [ECM29], the protein stability index was 2.78 ± 0.072. For TDEHLIFNSGKMIILDK [ISW2], the protein stability index was 2.35 ± 0.1. Work on TDKVSLSQPVSASKHEY [SIR4] yielded a protein stability index of 2.24 ± 0.082. TDLKKIIKANQLILSDV [RET1] showed a protein stability index of 2.48 ± 0.053. In the case of TEDRYNEYVAKVSAREK [FAS2], the protein stability index is reported as 3.04 ± 0.094. For TEENKANTNSVTSMEAA [YIL149C/MLP2], the protein stability index was 3.12 ± 0.08. TEKKFTKEQYAAESKKY [RPL5] showed a protein stability index of 2.98 ± 0.075. For TETALMNLKKELQGYIE [SRB5], the protein stability index was 3.11 ± 0.062. With TEYCVGDYVAYQLNGVA [YMR129W/POM152] the protein stability index was 2.1 ± 0.23. TEYGRKYNVNISALTQT [PRP8] gave a protein stability index of 2.94 ± 0.14. TFAQEKLNTFENDLLQE [SMC3] showed a protein stability index of 3.12 ± 0.13. Work on TFAVILFLIIQCYKIYD [YMR129W/POM152] yielded a protein stability index of 1.19 ± 0.094. In the case of TFEIPQAHEIVIPSYSK [SWI3], the protein stability index is reported as 2.39 ± 0.065. In the case of TFENTNNTEKNDVTNKN [SIR4], the protein stability index is reported as 2.88 ± 0.059. Sequence TFFPRCIIAVSCTLLER [POP1] has a protein stability index of 1.5 ± 0.051. Sequence TFGIRRNEKIAVHVTVR [RPL11A] has a protein stability index of 2.12 ± 0.081. With TFHDYDMVKLDINPPLV [RRP42] the protein stability index was 2.87 ± 0.096. In the case of TFQRVCQYMVACVPLLP [RPN1], the protein stability index is reported as 1.86 ± 0.14. TFSVYHESTSRTDQYTI [YMR129W/POM152] showed a protein stability index of 2.58 ± 0.098. TGANSIYSVEKKISRLP [UBP6] gave a protein stability index of 3.07 ± 0.059. With TGITKKDEDEEADEDMK [PRE9] the protein stability index was 3.06 ± 0.064. TGTGLQDENIGLSMLAK [RPC31] showed a protein stability index of 3.05 ± 0.13. TGVMIGIDLAYNMYDAY [PRP8] gave a protein stability index of 2.82 ± 0.066. In the case of THSKLFADKKRDCIDIS [PRP8], the protein stability index is reported as 3.18 ± 0.061. With TIEHAADITDGNNTELT [YCG1] the protein stability index was 3.33 ± 0.078. TIEVLDEVITEGQADID [POP7] showed a protein stability index of 3.06 ± 0.072. TIFGGVDKNGAHLYMLE [PRE10] gave a protein stability index of 2.87 ± 0.086. Work on TIFNLPKNKLVPTLEAK [FAS1] yielded a protein stability index of 3.08 ± 0.051. In the case of TIFSPEGRLYQVEYALE [PRE9], the protein stability index is reported as 3.14 ± 0.11. Sequence TIGGGLFGNKPTTTTGG [YGR119C/NUP57] has a protein stability index of 3.56 ± 0.15. Sequence TIGPYRARKDRMRVSVL [SSN3] has a protein stability index of 3.07 ± 0.083. TIITDCAFLLTKIKDAE [YJL039C/NUP192] showed a protein stability index of 2.06 ± 0.13. Work on TIKVAGTPLLEVRGQVP [SNU114] yielded a protein stability index of 2.94 ± 0.063. For TIKVVKRSMDAEQLGHA [RPP1], the protein stability index was 3.41 ± 0.042. In the case of TILQHLSEAWRCWKANI [PRP8], the protein stability index is reported as 3.5 ± 0.047. For TILYLNVFHGLCAGANN [IRR1], the protein stability index was 1.39 ± 0.087. TIPLGGSVHKLPYAIAG [PRE3] gave a protein stability index of 2.84 ± 0.089. For TIRYPDPNIKVNDTVKI [RPS4A], the protein stability index was 2.75 ± 0.1. In the case of TKDKAKKIREIYRYDEM [BRR2], the protein stability index is reported as 2.46 ± 0.14. Work on TKEVESNIITKSLVQYI [DIS3] yielded a protein stability index of 2.65 ± 0.076. Work on TKGMITNLQRNVDRLYK [NUT2] yielded a protein stability index of 2.69 ± 0.24. For TKIAQSQTMAETYVASY [ECM29], the protein stability index was 2.27 ± 0.044. TKKTITPMGGFVHYGEI [RPL3] gave a protein stability index of 3.08 ± 0.093. With TKLIQYEHNGRTLEAIT [CSL4] the protein stability index was 2.38 ± 0.055. With TKNIPITHRDLHYDKDY [SSN8] the protein stability index was 2.87 ± 0.03. Sequence TKPNVLNDPSLKIQFIL [SIN4] has a protein stability index of 2.57 ± 0.049. TKRESLNARMFLKYYGA [SIR2] showed a protein stability index of 3.14 ± 0.11. Sequence TKSNRRVSHSDTNSSKP [SIR4] has a protein stability index of 2.99 ± 0.077. Sequence TKTNVDNNSKAEASFTF [YLR335W/NUP2] has a protein stability index of 3.07 ± 0.045. Work on TKTPGPGGQAALRALAR [RPS14A] yielded a protein stability index of 2.39 ± 0.042. Work on TKTRKHRGHVSAGKGRI [RPL28] yielded a protein stability index of 2.09 ± 0.12. Sequence TKTTGKCGSVTVRLIPA [RPS2] has a protein stability index of 1.35 ± 0.17. TKVLQFAAKQRQELQMQ [SNF2] showed a protein stability index of 2.51 ± 0.059. With TKYSAKYAQDGAGIERE [RPL3] the protein stability index was 3.24 ± 0.27. TLAERQQLAYDLSISAL [RPN9] showed a protein stability index of 2.77 ± 0.24. TLAITTVTNSKFRSSIL [RPN2] showed a protein stability index of 2.17 ± 0.054. For TLAYDRGHRIRREFKQY [PRP8], the protein stability index was 2.35 ± 0.098. Sequence TLDYAERHGYIRGIVKQ [RPL2A] has a protein stability index of 1.71 ± 0.079. TLEAKIGGLLSKVREEV [RPO31] showed a protein stability index of 3.6 ± 0.084. TLFSSIEPQVINYLALN [ECM29] gave a protein stability index of 2.29 ± 0.21. For TLGKLSTSVGWKYEDVV [RPL16B], the protein stability index was 2.71 ± 0.11. Work on TLHLVLRLRGGIIEPSL [RPL40A] yielded a protein stability index of 2.58 ± 0.056. TLKLQDTRITPSKVSKI [PRE6] gave a protein stability index of 2.34 ± 0.1. Sequence TLKPTFSFTEPAQKDSS [YOR098C/NUP1] has a protein stability index of 2.99 ± 0.065. TLLREVVFTRLVQRCWQ [CSN12] showed a protein stability index of 1.39 ± 0.12. For TLLYEQIIQRDKINKYS [SNF5], the protein stability index was 3.19 ± 0.059. With TLNPKTGHLFLKIIHTS [PRP8] the protein stability index was 1.77 ± 0.076. Sequence TLNSRALSGLYYKNFHN [SNM1] has a protein stability index of 1.88 ± 0.063. TLPGDDELDQEILNLST [RPT5] showed a protein stability index of 3.58 ± 0.072. In the case of TLPQPRLNKLNSNGIAM [SMD1], the protein stability index is reported as 1.72 ± 0.094. With TLQLYMVHREFLKLANG [RGR1] the protein stability index was 2.07 ± 0.058. TLQTISFLGYLRYVKQI [ISW2] gave a protein stability index of 1.5 ± 0.094. TLSYDDISAAIVHSSDG [DLS1] gave a protein stability index of 2.72 ± 0.04. With TMETKTLPEKKQFDSIF [SIR4] the protein stability index was 2.84 ± 0.047. Sequence TMGEETAKKDMSSTTPK [SNF12] has a protein stability index of 3.31 ± 0.1. Work on TMHTKTYAAEIAHNISA [RPL32] yielded a protein stability index of 2.21 ± 0.051. For TMLENITLRGVENIERV [RPO21], the protein stability index was 2.82 ± 0.12. TNEEVRNMAEEFEYDDE [CYT1] gave a protein stability index of 2.49 ± 0.098. TNKISPKDFSPNFTGID [SSN2] showed a protein stability index of 2.9 ± 0.12. Sequence TNNKKLLEKANNQQRLL [SMC3] has a protein stability index of 2.58 ± 0.18.
